According to US20140271639A1, “Semaphorin 7a Induced Lung Fibrogenesis Occurs in a CD-4-Dependent, Macrophage Dependent Manner” (YALE UNIVERSITY, priority 2011, published 2014):

System: CD14+ monocytes
Experiment: Sema 7a stimulation of CD14+ monocytes; CD206 expression via flow cytometry
Assay type: cell-based, human
Method: Antibodies against mouse F4/80, CD11b, and CD11c, and against human CD4, CD8, and CD14 were purchased from BD Pharmingen. CD206 antibody was purchased from Serotec. Semaphorin 7a antibody was obtained from R & D Systems. Appropriate isotype controls were obtained from BD Pharmingen. Flow cytometry and cell sorting were performed using a BD FACSCalibur. Data were analyzed using Flow Jo v 7.5 software (Tree Star, Inc, Ashland, Oreg.). For all analyses, isotype control staining was subtracted from true antibody staining to determine the percentage of positive cells. When necessary this percentage was then multiplied by the total cell count in the sample to derive absolute quantity of the cell population of interest.
Ficoll separation and processing of PBMCs for FACS was performed as we have previously described (Gan et al., 2011, Arthritis Rgeum. 63:2484-2494).
CD14+ monocytes were obtained via MACS-enrichment as have been previously described. These cells were stimulated with recombinant Sema 7a (Abnova, Taiwan) or human serum albumin (Sigma) as previously described (Gan et al., 2011, Arthritis Rgeum. 63:2484-2494). Lentivirally-mediated shRNA knockdown of Plexin C1 expression was performed using specific anti-Plexin shRNA or control “scramble” shRNA (Santa Cruz Biotech, Santa Cruz […].) as previously described (Gan et al., 2011, Arthritis Rgeum. 63:2484-2494).

B1: recombinant Sema 7a protein: recombinant Sema 7a (Abnova, Taiwan) used to stimulate CD14+ monocytes (protein, UniProt O75326 45-648, looked up)
Semaphorin-7A: QGHLRSGPRIFAVWKGHVGQDRVDFGQTEPHTVLFHEPGSSSVWVGGRGKVYLFDFPEGKNASVRTVNIGSTKGSCLDKRDCENYITLLERRSEGLLACGTNARHPSCWNLVNGTVVPLGEMRGYAPFSPDENSLVLFEGDEVYSTIRKQEYNGKIPRFRRIRGESELYTSDTVMQNPQFIKATIVHQDQAYDDKIYYFFREDNPDKNPEAPLNVSRVAQLCRGDQGGESSLSVSKWNTFLKAMLVCSDAATNKNFNRLQDVFLLPDPSGQWRDTRVYGVFSNPWNYSAVCVYSLGDIDKVFRTSSLKGYHSSLPNPRPGKCLPDQQPIPTETFQVADRHPEVAQRVEPMGPLKTPLFHSKYHYQKVAVHRMQASHGETFHVLYLTTDRGTIHKVVEPGEQEHSFAFNIMEIQPFRRAAAIQTMSLDAERRKLYVSSQWEVSQVPLDLCEVYGGGCHGCLMSRDPYCGWDQGRCISIYSSERSVLQSINPAEPHKECPNPKPDKAPLQKVSLAPNSRYYLSCPMESRHATYSWRHKENVEQSCEPGHQSPNCILFIENLTAQQYGHYFCEAQEGSYFREAQHWQLLPEDGIMAEHLLGHACALA
response to Sema 7a stimulation (cell surface expression of CD206) (IPF monocytes, p=0.16, FIGS. 6A and 6B): failed to respond | increase in cell surface expression of CD206 (normal human monocytes, p=0.04, FIGS. 6A and 6B): 94.3%
